# The nanobody polyreactivity screen of Harvey et al. (2022)
# Assay: yeast display, Sf9 membrane polyspecificity reagent, FACS + sequencing; frameworks hold sequencing errors
# Summary of the method: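 After 36–48 hours of galactose induction, yeast (Saccharomyces cerevisiae BJ5465) displaying a synthetic nanobody library were stained at 4 °C for 1 hour with 10% biotinylated, detergent-solubilized Sf9 membrane reagent. Streptavidin microbeads enriched the stained cells before FACS sorting into low and high (top ~1%) gates on anti-HA and streptavidin fluorescence. Each clone's polyreactivity label reflects its gate of origin.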
row,Sequence,polyreactivity (PSR sort gate)
1,QVQLVESGGGLVQAGGSLRLSCAASGRTFWINAMGWYRQAPGKERELVAAITRGGRTYADSVKGRFTISRDNAKYTVYLQMNSLKPEDTAVYYCAAESYRLSGHHGYDYWGQCTQVTVSS,high polyreactivity
2,QVQLVESGGGLVQAGGSLRLSCAASGRTFWIYAMGWYRQAPGKEREFVAAISSSGGGTYYADSVKGRFTISRDNAKNTVYLQMNSLKPEDTAVYYCAADDGYSSNEFDYWGQGTQVTVSS,low polyreactivity
3,QVQLVESGGGLVQAGGSLRLSCAASGRTFWIYAMGWYRQAPGKEREFVAAISSSGGGTYYADSVKGRFTISRDNAKNTVYLQMNSLKPEDTAVYYCAKDLYFSKGYYWGQGTQVTVSS,low polyreactivity
4,QVQLVESGGGLVQAGGSLRLSCAASGRTFWIYGMGWYRQAPGKERELVAAITRSGGSTNYADSVKGRFTISRDNAKNTVYLQMKSLKPEDTAVYYCAADTWYPGYYAYDYWGQGTQVTVSS,high polyreactivity
5,QVQLVESGGGLVQAGGSLRLSCAASGRTFWNYAMGWYRQAPGKERELVAVIRFSDGSTYYSDSVKGRFTISRDKAKNTVYLQMNSLKPEDTAVYYCGAKGPRRWGSGFDYWGQGTQVNVSS,low polyreactivity
6,QVQLVESGGGLVQAGGSLRLSCAASGRTFWPNVMGWYRQAPGKERELVAAITWGDASTYYADSVKGRFTISRDNAKNTVYLQMNSLKPEDTAGYSCAASDYRSTYDYWGQGTQVTVSS,low polyreactivity
7,QVQLVESGGGLVQAGGSLRLSCAASGRTFWRYAMGWYRQAPGKERELVAAITSGGGSTYYADSVKGRFTISRDNAKNTVYLQMNSLKPEDTAVYYCNRAGRGRSFKGDYWGQGTQVTVSS,high polyreactivity
8,QVQLVESGGGLVQAGGSLRLSCAASGRTFWRYAMGWYRQAPGKERELVADISNSDTSTYYADSVKGRFTISRDNAKNSVYLQMKSLKPEDTAVYYCAARPFRFRLSDKYNYWGQGTQVTVSS,high polyreactivity
9,QVQLVESGGGLVQAGGSLRLSCAASGRTFWSNAMGWYRQAPGKERELVADITFSGGRTYYADSVKGRFTISRDNAKNTVYLQMNSLKPEDTAVYYCAASATPSGVGMDYWGQGTQVTVSS,low polyreactivity
10,QVQLVESGGGLVQAGGSLRLSCAASGRTFWSYAMGWYRPAPGKERELVAAINSSGDSTNYADSVKGRFTISRDNAKNTVYLQMNWLKPEDTAVYYCAADGGLLAGSDATVRMDYWGQGTQVTVSS,low polyreactivity
11,QVQLVESGGGLVQAGGSLRLSCAASGRTFWSYAMGWYRQAPGKERELVATINDSDGSTYADSVKGRFTISRDNAKNTVYLQMNSLKPEDTAVYYCNAQTRAGYYFGYGYWGQGTQVTVSS,low polyreactivity
12,QVQLVESGGGLVQAGGSLRLSCAASGRTFWTNAKGWYRQAPGKERDFFAAISWRGASTFYADSVKGRFTISRYNAKNTVYLQMNSLKPEDTAVYYCAAQSRTRSFYGKYDSWGQGTQVTVSS,low polyreactivity
13,QVQLVESGGGLVQAGGSLRLSCAASGRTFWTNAMGWYRQAPGKERELVAAISWTTGSTNYADSVKGRFTISRDNAKNTVYLQMNSLKPEDTAVYYWAADSQYGWPEYEYDYWGQGTQVTVSS,low polyreactivity
14,QVQLVESGGGLVQAGGSLRLSCAASGRTFWTYAMGWYRLAPGKERELVASISKSGGSTYADSVKGRFTITRDNAKNTVYLQMNSLKPEDTAVYYCATDLSYDVWFFGPDYDYWGQGTQVTVSS,low polyreactivity
15,QVQLVESGGGLVQAGGSLRLSCAASGRTFWVYAMGWYRQAPGKERELVAAISRSGVSTYYADSVKGRFTISRDNAKNTVYLQMNSLKPEDTAVYYCAAPLIYTPLKYHYWGQGTQVTVSS,low polyreactivity
16,QVQLVESGGGLVQAGGSLRLSCAASGRTFWWYAMGWYRQAPGKERALVAGISSGGSTYYADSVKGRCTISRDNAKKTVYLLMNSRKPEETAVYYCAKTYWYPWRASLWHEYDYWGQGTQVTVSS,low polyreactivity

row,Sequence,polyreactivity (PSR sort gate)
1,QVQLVESGGGLVQAGGSLRLSCAASGRTFWYNAMGWYRQAPGKEREFVAAIRWTTGSTYYADSVKGRFTISRDNAKNTVYLQMNSLKPEDTAVYYCAASLYPVRRDYWGQGTQVTVSS,high polyreactivity
2,QVQLVESGGGLVQAGGSLRLSCAASGRTFWYNAMGWYRQAPGKERELVAVISSGAITYYADSVKGRFTISRDNAKNTVYLQMNSLKPEDTAVYYCAARSYLSLIDYWGQGTQVTVSS,high polyreactivity
3,QVQLVESGGGLVQAGGSLRLSCAASGRTFWYNAMGWYRQAPGKERELVAVISSGAITYYADSVKGRFTISRDNAKNTVYLQMNSLKPEDTAVYYCNAQRRGTYYWGQGTQVTVSS,high polyreactivity
4,QVQLVESGGGLVQAGGSLRLSCAASGRTFWYYAMGWYRQAPGKERELVAAITYRGGSTYYADSVKGRFTISRDNVKNTVYLQMNSLKPEDTAVYYCARRVDSYYGHTRYYYWGQGTQVTVSS,high polyreactivity
5,QVQLVESGGGLVQAGGSLRLSCAASGRTFWYYAMGWYRQAPGKERELVADITRRGGGTYYADSVKGRFTISRDNAKNTVYLQMNSLKPEDTAVYYCAVERWPRSYPPSYDYWGQGTQVTVSS,high polyreactivity
6,QVQLVESGGGLVQAGGSLRLSCAASGRTFWYYAMGWYRQAPGNERELVATISYRGGSTYYADSVKGRFTISRDNAKNTVYLQMNSLKPEDPAVYYSAAKQWWGGRPKVDYWGQGTQVTVSS,high polyreactivity
7,QVQLVESGGGLVQAGGSLRLSCAASGRTFWYYAMVWSRQAPGKERELVAGITFTGGRTYYADSVKGRFTISRDNSKNTVYLQMNSLKPEDTAVYYCAAAGLDVGRKDRDGYWGQGTQVTVSS,low polyreactivity
8,QVQLVESGGGLVQAGGSLRLSCAASGRTFWYYPMGGYRQEPGKERELVAAITRGTSTYADSVKGRFTISRDNAKTTVYLQMNSLKPEDTAVDYCAADTWGTRNSRYDYWGQGTQVTVSS,high polyreactivity
9,QVQLVESGGGLVQAGGSLRLSCAASGRTFYANAMGWYRQAPGKERELVAAISSSGSRTYYADSVKGRFTISRDNAKNTVYLQMNSLKPEDTAVYYCNAAAPYLTRQHWARDYWGQGTQVTVSS,high polyreactivity
10,QVQLVESGGGLVQAGGSLRLSCAASGRTFYANDMGWYRQAPGKERELVARITSGGSTYYADSVKGRFTISRDNAKNTVYLQMNSLKPEDTAVYYCAAVTRRFSYRYNYWGQGTQVTVSS,high polyreactivity
11,QVQLVESGGGLVQAGGSLRLSCAASGRTFYAYAMGWSRQAPGKERELVAAISWRGGDTYYADSVKGRFTISRDNAKNTVYLQMNSLKPEDTAVYYCAKYLSRQSGDGEYDYWGQGTQVTVSS,low polyreactivity
12,QVQLVESGGGLVQAGGSLRLSCAASGRTFYAYAMGWYRQAPGKERELVAAISSGGSTYYADSVKGRFTISRDNAKNTVYLQMNSLKPEDTAVYYCNAGYYQWPFSGYDYWGQGTQVTVSS,low polyreactivity
13,QVQLVESGGGLVQAGGSLRLSCAASGRTFYAYAMGWYRQAPGKERELVSAISWRGGDTYYADSVKGRFTISRDYAKNTVYLQMHSLIPEDTAFYYCAADFTYTWDAAQGYDYWGQGPQVTVSS,low polyreactivity
14,QVQLVESGGGLVQAGGSLRLSCAASGRTFYDNAMGWYRQAPGKERELVAVISTSGARTYYADSVKGRFTISRDNAKNTVYLQMNSLKPEDTAVYYCAAGPALWQAYRMYYWGQGTQVTVSS,high polyreactivity
15,QVQLVESGGGLVQAGGSLRLSCAASGRTFYDYAKGWYRQAPGKERELVASITYYADSVKGRFTISRDNAKNTVYLQMNSLKPEDTSVYYCAKDLYSNDLYRRYDYWGQGTQVTVSS,low polyreactivity
16,QVQLVESGGGLVQAGGSLRLSCAASGRTFYDYAMGWYRQAPGKERELVAGIRWSGGSTYYADSVKGRFTISRDNAKNTVFLQMNSLKPEDTAVYYCAADWFAGVAADVEYDYWGQGTQVTVSS,low polyreactivity
